Test [1] addresses endogenous CAPN2 (human (endogenous in MDA-MB-231)) (UniProt P17655).
Test [2] addresses T1, His10-LgBiT-CAPNS1 (human, UniProt P04632 60-268).
T1 construct: CAPNS1, calpain small regulatory subunit, human, penta-EF-hand domain PEF(S), residues 60-268; Cloned in pET16b; also called CAPNS1 PEF(S) biosensor component; source: E. coli BL21 RIPL; not shown: His10, N-terminal, kept; LgBiT, N-terminal, kept
T1 sequence (looked up): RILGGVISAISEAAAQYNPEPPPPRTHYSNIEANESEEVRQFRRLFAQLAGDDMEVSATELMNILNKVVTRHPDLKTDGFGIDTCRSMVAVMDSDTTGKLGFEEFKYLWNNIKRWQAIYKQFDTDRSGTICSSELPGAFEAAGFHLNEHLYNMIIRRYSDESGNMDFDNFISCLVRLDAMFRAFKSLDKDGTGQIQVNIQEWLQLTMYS
The experiment in a line: split reporter (BiFC, NanoBiT); fixed 100 nM LgBiT-CAPNS1, increasing SmBiT component, 5 mM Ca2+; estimated KD from the inflection of the plot assuming first-order kinetics; for CAPNS1 with CAPNS1: dimer to monomers. The settings on record: both partners purified.

The target of test [3] is T2, LgBiT-CAPNS1 (mammalian expression construct) (human, UniProt P04632 60-268).
T2 construct: CAPNS1, human, PEF(S) domain, residues 60-268, in pBiT1.1-N (TK/LgBiT); source: HEK293T, transfected, in lysate; not shown: LgBiT, N-terminal, kept
T2 sequence (looked up): T1 sequence (looked up)
Briefly: split reporter (BiFC, NanoBiT); LgBiT and SmBiT fusions coexpressed pairwise in transfected HEK293T cells; luciferase signal of cell lysates as fold change over a LgBiT-alone control. The settings on record: partners not purified.

Test [4] concerns the target T1, His10-LgBiT-CAPNS1. Briefly: split reporter (BiFC, NanoBiT); fixed 100 nM LgBiT-CAPNS1, increasing SmBiT-CAPN1/2, 5 mM Mg2+ in place of Ca2+; estimated KD from the inflection of the plot assuming first-order kinetics. The settings on record: both partners purified.
The target in test [5] is T1, His10-LgBiT-CAPNS1. Briefly: split reporter (BiFC, NanoBiT); crude bacterial lysates with approximately equimolar biosensor components; 5 mM Mg2+, no Ca2+; fold over His10-LgBiT-CAPNS1 alone. The settings on record: partners not purified.

Chain of endogenous CAPN2 (human (endogenous in MDA-MB-231)) (P17655 20-700): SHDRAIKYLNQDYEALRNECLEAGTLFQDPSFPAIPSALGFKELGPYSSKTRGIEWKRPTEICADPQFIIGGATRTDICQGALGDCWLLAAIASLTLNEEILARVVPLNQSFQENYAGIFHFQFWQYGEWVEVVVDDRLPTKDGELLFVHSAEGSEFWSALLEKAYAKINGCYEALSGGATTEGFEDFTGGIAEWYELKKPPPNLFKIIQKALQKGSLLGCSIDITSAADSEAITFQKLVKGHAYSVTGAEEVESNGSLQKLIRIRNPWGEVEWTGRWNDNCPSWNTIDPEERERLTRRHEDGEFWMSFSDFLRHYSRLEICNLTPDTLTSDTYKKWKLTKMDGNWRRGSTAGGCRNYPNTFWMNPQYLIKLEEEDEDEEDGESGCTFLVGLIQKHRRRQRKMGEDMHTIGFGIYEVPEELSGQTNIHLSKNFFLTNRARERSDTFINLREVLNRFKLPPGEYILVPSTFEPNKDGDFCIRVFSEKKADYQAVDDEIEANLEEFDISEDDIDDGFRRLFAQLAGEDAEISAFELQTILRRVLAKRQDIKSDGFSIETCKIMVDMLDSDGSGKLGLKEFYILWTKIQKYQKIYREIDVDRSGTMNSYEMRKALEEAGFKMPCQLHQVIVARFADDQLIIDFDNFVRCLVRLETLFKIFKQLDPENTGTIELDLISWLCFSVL

“recombinant CAPNS1 Q263R (pMSCV_CAPNS1) (from UniProt P04632 1-268) (natural protein)”: in test [1], the calpain-2 casein proteolytic activity (zymography of cell lysates), standardized to CAPN2 expression, against WT CAPNS1 was 51 % of the WT.

B1: His6-MBP-SmBiT-CAPNS1 (domain or fragment, human, UniProt P04632 60-268, looked up)
chain: T1 sequence (looked up)
notes: CAPNS1, calpain small regulatory subunit, human, penta-EF-hand domain PEF(S), residues 60-268; Same CAPNS1 stretch as m1 with other tags; m4 with m1 measures the PEF(S):PEF(S) homodimer of CAPNS1; not shown: His6, N-terminal, kept; MBP, N-terminal, kept; SmBiT, N-terminal, kept
For the molecule B1, the dissociation constant (Kd) in the test with His10-LgBiT-CAPNS1 [2] was 635 nM.

B2: SmBiT-CAPN1 (mammalian expression construct) (domain or fragment, human, UniProt P07384 538-714, looked up)
chain: LSEEEIDENFKALFRQLAGEDMEISVKELRTILNRIISKHKDLRTKGFSLESCRSMVNLMDRDGNGKLGLVEFNILWNRIRNYLSIFRKFDLDKSGSMSAYEMRMAIESAGFKLNKKLYELIITRYSEPDLAVDFDNFVCCLVRLETMFRFFKTLDTDLDGVVTFDLFKWLQLTMFA
notes: CAPN1, human, PEF(L) domain, residues 538-714, in pBiT2.1-N (TK/SmBiT); source: HEK293T, transfected, in lysate; not shown: SmBiT, N-terminal, kept
With B2, in test [3], the “fold increase of bioluminescence over LgBiT-CAPNS1 alone” value was around 400 fold.

B3: His6-MBP-SmBiT-CAPN1 (domain or fragment, human, UniProt P07384 538-714, looked up)
chain: B2 chain
notes: CAPN1, calpain-1 catalytic subunit, human, penta-EF-hand domain PEF(L), residues 538-714; Cloned in pHT29 (modified pET16b); also called CAPN1 PEF(L) biosensor component; source: E. coli BL21 RIPL; not shown: His6, N-terminal, kept; MBP, N-terminal, kept; SmBiT, N-terminal, kept
Take B3: the dissociation constant (Kd) is 362 nM in the test with His10-LgBiT-CAPNS1 [4] and 185 nM with His10-LgBiT-CAPNS1 [2]. Further, in the test with His10-LgBiT-CAPNS1 [5], the “fold signal over LgBiT-CAPNS1 alone” value came out at 47 fold.

Usually Kd stands for a measure of binding affinity in units of concentration.

These data come from paper PMC12205653 (The Journal of Biological Chemistry, 2025).
